# Test results as given in US20170096461A1 (IMMATICS BIOTECHNOLOGIES, published 2017).
# Molecular target: T1, HLA-A*02:01 (peptide-receptive MHC class I monomer after UV-ligand exchange) (human)
# T1 construct: Monomers made with a UV-sensitive peptide that is cleaved by UV and exchanged for the test peptide; captured on streptavidin plates; also called MHC molecules
# Test: UV-ligand exchange + anti-b2m ELISA; exchange yield grade: + >=10%, ++ >=20%, +++ >=50, ++++ >=75%
# Text: Candidate peptides for T cell based therapies according to the present invention were further tested for their MHC binding capacity (affinity). The individual peptide-MHC complexes were produced by UV-ligand exchange, where a UV-sensitive peptide is cleaved upon UV-irradiation, and exchanged with the peptide of interest as analyzed. Only peptide candidates that can effectively bind and stabilize the peptide-receptive MHC molecules prevent dissociation of the MHC complexes. To determine the yield of the exchange reaction, an ELISA was performed based on the detection of the light chain (β2m) of stabilized MHC complexes. The assay was performed as generally described in Rodenko et al. (Rodenko et al., 2006).
# 96 well MAXISorp plates (NUNC) were coated over night with 2 ug/ml streptavidin in PBS at room temperature, washed 4× and blocked for 1 h at 37° C. in 2% BSA containing blocking buffer. Refolded HLA-A*02:01/MLA-001 monomers served as standards, covering the range of 15-500 ng/ml. Peptide-MHC monomers of the UV-exchange reaction were diluted 100 fold in blocking buffer. Samples were incubated for 1 h at 37° C., washed four times, incubated with 2 ug/ml HRP conjugated anti-β2m for 1 h at 37° C., washed again and detected with TMB solution that is stopped with […]. Absorption was measured at 450 nm. Candidate peptides that show a high exchange yield (preferably higher than 50%, most preferred higher than 75%) are generally preferred for a generation and production of antibodies or fragments thereof, and/or T cell receptors or fragments thereof, as they show sufficient avidity to the MHC molecules and prevent dissociation of the MHC complexes.
row,Binder,peptide exchange yield [%]
1,ALYSKGILL [peptide ALYSKGILL (SEQ ID NO: 95)],≥ 75
2,IQHDLIFSL [peptide IQHDLIFSL (SEQ ID NO: 89)],50 to 75
3,ALSSVIKEL [peptide ALSSVIKEL (SEQ ID NO: 82)],50 to 75
4,AIIDGKIFCV [peptide AIIDGKIFCV (SEQ ID NO: 77)],50 to 75
5,FAYDGKDYLTL [peptide FAYDGKDYLTL (SEQ ID NO: 85)],50 to 75
6,AAAPGEALHTA [peptide AAAPGEALHTA (SEQ ID NO: 9)],20 to 50
7,ALRETVVEV [peptide ALRETVVEV (SEQ ID NO: 93)],50 to 75
8,KLLEIDIDGV [peptide KLLEIDIDGV (SEQ ID NO: 83)],50 to 75
9,KLQDGVHII [peptide KLQDGVHII (SEQ ID NO: 91)],50 to 75
10,KMFENEFLL [peptide KMFENEFLL (SEQ ID NO: 84)],50 to 75
11,ALLDGTVFEI [peptide ALLDGTVFEI (SEQ ID NO: 97)],50 to 75
12,AMNSQILEV [peptide AMNSQILEV (SEQ ID NO: 101)],50 to 75
13,ALFPVAEDISL [peptide ALFPVAEDISL (SEQ ID NO: 94)],50 to 75
14,KVIDYVPGI [peptide KVIDYVPGI (SEQ ID NO: 86)],50 to 75
15,KLFAIPILL [peptide KLFAIPILL (SEQ ID NO: 11)],50 to 75
16,ALFARPDLLLL [peptide ALFARPDLLLL (SEQ ID NO: 102)],≥ 75
17,ILMDPSPEYA [peptide ILMDPSPEYA (SEQ ID NO: 80)],50 to 75
18,FLDSLSPSV [peptide FLDSLSPSV (SEQ ID NO: 74)],50 to 75
19,KAIGSLKEV [peptide KAIGSLKEV (SEQ ID NO: 72)],50 to 75
20,ALVDHLNVGV [peptide ALVDHLNVGV (SEQ ID NO: 98)],50 to 75
21,GLLGDIAIHL [peptide GLLGDIAIHL (SEQ ID NO: 7)],50 to 75

# The next lines start with the values.
row,peptide exchange yield [%],Binder
1,≥ 75,SLLEYQMLV [peptide SLLEYQMLV (SEQ ID NO: 103)]
2,50 to 75,YLQDYTDRV [peptide YLQDYTDRV (SEQ ID NO: 92)]
3,≥ 75,RIIDPEDLKALL [peptide RIIDPEDLKALL (SEQ ID NO: 78)]
4,10 to 20,VADPETRTV [peptide VADPETRTV (SEQ ID NO: 100)]
5,50 to 75,TLIQFTVKL [peptide TLIQFTVKL (SEQ ID NO: 104)]
6,50 to 75,RLLEPAQVQQL [peptide RLLEPAQVQQL (SEQ ID NO: 79)]
7,50 to 75,TLVDNISTMAL [peptide TLVDNISTMAL (SEQ ID NO: 90)]
8,50 to 75,SLDLHVPSL [peptide SLDLHVPSL (SEQ ID NO: 75)]
9,50 to 75,SLSSYTPDV [peptide SLSSYTPDV (SEQ ID NO: 73)]
10,≥ 75,QMLEAIKALEV [peptide QMLEAIKALEV (SEQ ID NO: 99)]
11,≥ 75,LLQNNLPAV [peptide LLQNNLPAV (SEQ ID NO: 87)]
12,≥ 75,NLLKLIAEV [peptide NLLKLIAEV (SEQ ID NO: 96)]
13,50 to 75,LLAEIGAVTLV [peptide LLAEIGAVTLV (SEQ ID NO: 81)]
14,≥ 75,TLHRETFYL [peptide TLHRETFYL (SEQ ID NO: 88)]
